The values below are quoted from earlier work in article PMC8508939.

This data set addresses FoxP1 forkhead domain (Homo sapiens) (UniProt Q9H334).

Consider “FoxP1 forkhead domain (from UniProt Q9H334)”, for which the Kd was 27 µM.
